In publication PMC10023570, “Essential protein P116 extracts cholesterol and other indispensable lipids for Mycoplasmas” (Nature Structural & Molecular Biology, 2023):

Legend:
[1] = target: P116 W681A (M. pneumoniae) (UniProt P75556); test: SEC-MALS; Superose 6 10/300 GL column, DAWN HELEOS II MALS detector and Optilab T-REX refractive index detector
[2] = target: the molecule itself; test: as above

P116 W681A (from UniProt P75556 30-957) (domain or fragment)
rate of dimers to monomers (dimers:monomers) [1]: 0.25

B1: P116 (30–957), ectodomain of P116 (MPN_213) from Mycoplasma pneumoniae (domain or fragment)
chain: NKTHQVEHESEQSDFQDIRFGLNSVKLPKAQPAAATRITVENGTDKLVNYKSSPQQLFLAKNALKDKLQGEFDKFLSDAKAFPALTADLQEWVDQQLFNPNQSFFDLSAPRSNFTLSSDKKASLDFIFRFTNFTESVQLLKLPEGVSVVVDSKQSFDYYVNASAQKLLVLPLSLPDYTLGLNYMFDHITLNGKVVNKFSFNPFKTNLNLAFSNVYNGVDVFEAQKNLVGKGKYLNTHVKAEDVKKDVNANIKNQFDIAKIIAELMGKALKEFGNQQEGQPLSFLKVMDKVKEDFEKLFNLVRPGLGKFVKDLIQSSSQAENKITVYKLIFDNKKTILNLLKELSIPELNSSLGLVDVLFDGITDSDGLYERLQSFKDLIVPAVKTNEKTAALSPLIEELLTQKDTYVFDLIQKHKGILTNLLKNFLADFQKSTPFMADQVAIFTELFDNEGAFDLFGEADFVDKIAELFLTKRTVKNGEKIETKDSLLVTSLKSLLGEKVAALGDLLDSYIFKNELLNRSVEVAKAEAKDTKGATDYKKEQAKALKKLFKHIGENTLSKTNLDKITLKEVKNTENVELEETETTLKVKKLDVEYKVELGNFEIKNGLIKAMLEFLPDTKDLETTLDKLLFKGESYKAMKDKYIKEGFPGYGWAKGVVPGAFESIENTFKSAIDKTKSIRDLFGDMLFGNDLSSVKETDSFITLGGSFDIKYGGENLNVLPAYYSLINSEIGYQIIGVDTTIDATKVKVELKNKEYKGKSPAINGQVKLSQSFFNVWTNMFDSITKQIFQKKYEFKDNIQVFARNEDNTSRLELDISDPEQRVIPFAFVDGFGIQLKAVDKNITKEAGNTEPKSPVIQLYEALNKEKDQKQQSKQSPKQLDTKTQLGYLLKLGDNWSKDDYKSLIDDTIINNNYLEASFNSKITVDRLG
notes: source: E. coli B834 (DE3), purified (HisTrap, Superdex 200)
stoichiometry N [2]: 2
